Data on 94 variants can be found in the supplement of paper PMC10567573.

B1: PRIM1 (parent)
chain: CCSSADICPKCWTLMTMAIRIIDR
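Note: lentivirally expressed fusions sorted by FACS into six bins by GFP to DsRed ratio, PSI derived from sequencing read proportions per bin multiplied by bin number.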

In the series the parent is B1. Kind of series: protein stability index of a GFP-peptide fusion (GPS, HEK-293T) (PSI 1-6); higher = more stable. As to conditions: c terminus: a fixed tail appended.
For the variant CCSSADICPKCWTLMAMAIRIIDR [T16A], the protein stability index was 2.23. With CCSSADICPKCWTLMFMAIRIIDR [T16F], the protein stability index was found to be 2.12. On to CCSSADICPKCWTLMRMAIRIIDR [T16R], for which the protein stability index was found to be 1.95.

In the case of CCSSADICPKCWTLMYMAIRIIDR [T16Y], the protein stability index came to 2.08. As to CCSSADICPKCWTLMGMAIRIIDR [T16G], the protein stability index amounted to 2.56. The same measure for CCSSADICPKCWTLMSMAIRIIDR [T16S]: 1.49. In the case of CCSSADICPKCWTLMKMAIRIIDR [T16K] it was 1.61; in that of CCSSPDICPKCWTLMTMAIRIIDR [A5P], 1.62.

Turning to CCSSDDICPKCWTLMTMAIRIIDR [A5D], the protein stability index was 1.41. The same measure for CCSSQDICPKCWTLMTMAIRIIDR [A5Q]: 1.51; for CCSSWDICPKCWTLMTMAIRIIDR [A5W]: 2.15; for CCSSLDICPKCWTLMTMAIRIIDR [A5L]: 1.15.

In the case of CCSSFDICPKCWTLMTMAIRIIDR [A5F], the protein stability index is 2.5. Consider CCSSMDICPKCWTLMTMAIRIIDR [A5M], for which the protein stability index worked out at 1.79. The same measure for CCSSADICPKCWTLMTMAIRIIDM [R24M]: 2.12. In the case of CCSSADICPKCWTLMTMAIRIIDW [R24W] it was 2.19; in that of CCSSADICPKCWTLMTMAIRIIDV [R24V], 2.46; in that of CCSSADICPKCWTLMTMAIRIIDK [R24K], 1.25. In the case of CCSSADICPKCWTLMTMAIRIIDC [R24C] it was 2.19; in that of CCSSADICPKCWTLMTMAIRIIDF [R24F], 1.68; in that of CCSSADICPKCWTLMTMAIRIIDT [R24T], 1.97.

For the variant CCSSADICPKCWTLMTMAIRIIDA [R24A], the protein stability index worked out at 1.89. For the variant CCSSADICPKCPTLMTMAIRIIDR [W12P], the protein stability index was found to be 1.48. As for CCSSADICPKCDTLMTMAIRIIDR [W12D], the protein stability index turned out to be 1.71.

In the case of CCSSADICPKCFTLMTMAIRIIDR [W12F], the protein stability index is 1.69.

Take CCSSADICPKCTTLMTMAIRIIDR [W12T]: the protein stability index stood at 1.88.

On to CCSSADICPKCKTLMTMAIRIIDR [W12K], for which the protein stability index was found to be 2.64. In the case of CCSSADICPKCRTLMTMAIRIIDR [W12R] it was 2.56. In the case of CCSSADICPKCITLMTMAIRIIDR [W12I] it was 1.83. With CCSSADICPKCNTLMTMAIRIIDR [W12N], the protein stability index came to 1.83. The same measure for CCSSADICPKCQTLMTMAIRIIDR [W12Q]: 2.75; for CCSSADICPKCATLMTMAIRIIDR [W12A]: 2.29. In the case of CCSSADICPKCGTLMTMAIRIIDR [W12G] it was 2.2. Take CCSSADICPKCWTLMTMGIRIIDR [A18G]: the protein stability index was 2.06.

CCSSADICPKCWTLMTMWIRIIDR [A18W]: the protein stability index worked out at 2.92. Consider CCSSADICPKCWTLMTMQIRIIDR [A18Q], for which the protein stability index is 2.71.

With CCSSADICPKCWTLMTMHIRIIDR [A18H], the protein stability index turned out to be 2.1.

Turning to CCSSADICPKCWTLMTMYIRIIDR [A18Y], the protein stability index is 1.34. On to CCSSADICPKCWTLMTMAIRMIDR [I21M], for which the protein stability index was 1.89.

As for CCSSADICPKCWTLMTMAIRCIDR [I21C], the protein stability index worked out at 1.94.

Turning to CCSSADICPKCWTLMTMAIRYIDR [I21Y], the protein stability index came out at 1.73. The same measure for CCSSADICPKCWTLMTMAIRHIDR [I21H]: 2.23; for CCSSADICPKCWTLMTMAIRWIDR [I21W]: 1.9. The same measure for CCSSADICPKCWTLMTMAIRPIDR [I21P]: 2.28; for CCSSADICPKCWTLMTMAIRNIDR [I21N]: 2.46. With CCSSADICPKCWTLMTMAIRGIDR [I21G], the protein stability index turned out to be 2.2. In the case of CCSSADICPKKWTLMTMAIRIIDR [C11K] it was 1.82; in that of CCSSADICPKWWTLMTMAIRIIDR [C11W], 2.84; in that of CCSSADICPKHWTLMTMAIRIIDR [C11H], 2.43. For the variant CCSSADICPKCWTRMTMAIRIIDR [L14R], the protein stability index came out at 2.18. On to CCSSADICPKCWTPMTMAIRIIDR [L14P], for which the protein stability index worked out at 2.27. The same measure for CCSSADICPKCWTNMTMAIRIIDR [L14N]: 1.82; for CCSSADICPKCWTWMTMAIRIIDR [L14W]: 2.62; for CCSSADICPKCWTFMTMAIRIIDR [L14F]: 2.06. In the case of CCSSADICPKCWTHMTMAIRIIDR [L14H] it was 1.6. In the case of CCSSADICPKCWTTMTMAIRIIDR [L14T] it was 2.89. As for CCSSADICPKCWTYMTMAIRIIDR [L14Y], the protein stability index was found to be 1.71. In the case of CCSSADICPKCWTAMTMAIRIIDR [L14A] it was 2.21; in that of CCSSADICPKCWTLMTMAIRIEDR [I22E], 2.57; in that of CCSSADICPKCWTLMTMAIRILDR [I22L], 2.3. With CCSSADICPKCWTLMTMAIRITDR [I22T], the protein stability index is 2.97. The same measure for CCSSADICPKCWTLMTMAIRIVDR [I22V]: 2.34. As to CCSSADICPKCWTLMTMAIRIWDR [I22W], the protein stability index was 1.72. The same measure for CCSSADICPKCWTLMTMAIRIHDR [I22H]: 1.9.

Consider CCSSADICPKCWTLMTMAIRIPDR [I22P], for which the protein stability index was 2.71. In the case of CCSSADICPKCWTLMTMAIRIYDR [I22Y] it was 2.09; in that of CCSSADICPKCWTLMTMAIRIQDR [I22Q], 2.81; in that of CCSSADICPKCWTLMTMAIRIFDR [I22F], 1.59.

Regarding CCSSADICPKCWTLMTMAIRIGDR [I22G], the protein stability index stood at 2.44. The same measure for CCSFADICPKCWTLMTMAIRIIDR [S4F]: 2.39; for CCSHADICPKCWTLMTMAIRIIDR [S4H]: 1.72.

Turning to CCSIADICPKCWTLMTMAIRIIDR [S4I], the protein stability index was 1.79. In the case of CCSEADICPKCWTLMTMAIRIIDR [S4E] it was 2.11. In the case of CCSNADICPKCWTLMTMAIRIIDR [S4N] it was 1.72; in that of CCSRADICPKCWTLMTMAIRIIDR [S4R], 2.42. The same measure for CCSYADICPKCWTLMTMAIRIIDR [S4Y]: 1.91; for CCSQADICPKCWTLMTMAIRIIDR [S4Q]: 2.66; for CCSSADWCPKCWTLMTMAIRIIDR [I7W]: 2.16.

With CCSSADCCPKCWTLMTMAIRIIDR [I7C], the protein stability index was 1.94. Turning to CCSSADDCPKCWTLMTMAIRIIDR [I7D], the protein stability index was 2.35.

Consider CCSSADNCPKCWTLMTMAIRIIDR [I7N], for which the protein stability index was 1.69. In the case of CCSSADMCPKCWTLMTMAIRIIDR [I7M] it was 1.52; in that of CCSSADTCPKCWTLMTMAIRIIDR [I7T], 1.77; in that of CCSSADQCPKCWTLMTMAIRIIDR [I7Q], 2.05. The same measure for CCSSADGCPKCWTLMTMAIRIIDR [I7G]: 1.98; for CCSSADICPKCWTLMTMAISIIDR [R20S]: 2.01. The same measure for CCSSADICPKCWTLMTMAILIIDR [R20L]: 1.77; for CCSSADICPKCWTLMTMAIPIIDR [R20P]: 2.25; for CCSSADICPKCWTLMTMAIGIIDR [R20G]: 2.23. CCSSADICPKCWTLMTMAIAIIDR [R20A]: the protein stability index turned out to be 1.93. For the variant CCSSADICPKCWTLMTMAIKIIDR [R20K], the protein stability index came out at 1.19.

Consider CCSSADICPKCWTLMTMAIQIIDR [R20Q], for which the protein stability index was found to be 3.56. Take CCSSADICPKCWTLMTMAIDIIDR [R20D]: the protein stability index is 1.5. In the case of CCSSADICPKCWTLMTMAIEIIDR [R20E] it was 1.83.
